Measurements published in PMC10063552.

Experiments:
Experiment in all cases: enzyme inhibition assay (cleavage of a chromogenic substrate, fit to Morrison's tight binding equation); MMP-2ACT (0.6 nM), MMP-9CAT (3 nM) or MMP-14CAT (1 nM) incubated with 0-25 nM N-TIMP2 variant in 50 mM HEPES, 10 mM CaCl2, 0.05% Brij-35, 1 mM DTNB, pH 7.5, 1 h at 37 °C; then 100 µM chromogenic substrate, absorbance at 412 nm at 37 °C; Ki from three independent experiments
[1] = molecular target: activated MMP-2 (MMP-2ACT) (human)
[2] = molecular target: human MMP-14 catalytic domain (MMP-14CAT) (human) (UniProt P50281)
[3] = molecular target: human MMP-9 catalytic domain (MMP-9CAT) (human) (UniProt P14780)

Substance | Ki [1] | Ki [2] | Ki [3]
N-TIMP2-A70HqAla (from UniProt P16035 27-153) (domain or fragment) | 16.7 nM | 27.2 nM | 1.93 nM
N-TIMP2-L100DOPA (from UniProt P16035 27-153) (domain or fragment) | 1 nM | 14.2 nM | 0.849 nM
N-TIMP2-S2DOPA (from UniProt P16035 27-153) (domain or fragment) | 3.14 nM | 14.6 nM | 0.623 nM
N-TIMP2-S2HqAla (from UniProt P16035 27-153) (domain or fragment) | 97.7 nM | 97.7 nM | 70.4 nM

Now those with a lower Ki [1], led by results:

Ki [1] | Ki [2] | Ki [3] | Substance
0.785 nM | 10.6 nM | 0.452 nM | N-TIMP2-A70DOPA (from UniProt P16035 27-153) (domain or fragment)
0.606 nM | 11.5 nM | 0.449 nM | N-TIMP2-S69HqAla (from UniProt P16035 27-153) (domain or fragment)
0.46 nM | 21.4 nM | 0.468 nM | N-TIMP2-S69DOPA (from UniProt P16035 27-153) (domain or fragment)
0.413 nM | 4.72 nM | 0.543 nM | N-TIMP2-Y36HqAla (from UniProt P16035 27-153) (domain or fragment)
